Source: PMC3617561 (Biochemistry, 2012)

Assays:
USP1(S313A) = molecular target: T1, USP1(S313A) (human, UniProt O94782 1-785, G670A | G671A | S313A); experiment: cell-based or functional assay
T1 sequence (looked up): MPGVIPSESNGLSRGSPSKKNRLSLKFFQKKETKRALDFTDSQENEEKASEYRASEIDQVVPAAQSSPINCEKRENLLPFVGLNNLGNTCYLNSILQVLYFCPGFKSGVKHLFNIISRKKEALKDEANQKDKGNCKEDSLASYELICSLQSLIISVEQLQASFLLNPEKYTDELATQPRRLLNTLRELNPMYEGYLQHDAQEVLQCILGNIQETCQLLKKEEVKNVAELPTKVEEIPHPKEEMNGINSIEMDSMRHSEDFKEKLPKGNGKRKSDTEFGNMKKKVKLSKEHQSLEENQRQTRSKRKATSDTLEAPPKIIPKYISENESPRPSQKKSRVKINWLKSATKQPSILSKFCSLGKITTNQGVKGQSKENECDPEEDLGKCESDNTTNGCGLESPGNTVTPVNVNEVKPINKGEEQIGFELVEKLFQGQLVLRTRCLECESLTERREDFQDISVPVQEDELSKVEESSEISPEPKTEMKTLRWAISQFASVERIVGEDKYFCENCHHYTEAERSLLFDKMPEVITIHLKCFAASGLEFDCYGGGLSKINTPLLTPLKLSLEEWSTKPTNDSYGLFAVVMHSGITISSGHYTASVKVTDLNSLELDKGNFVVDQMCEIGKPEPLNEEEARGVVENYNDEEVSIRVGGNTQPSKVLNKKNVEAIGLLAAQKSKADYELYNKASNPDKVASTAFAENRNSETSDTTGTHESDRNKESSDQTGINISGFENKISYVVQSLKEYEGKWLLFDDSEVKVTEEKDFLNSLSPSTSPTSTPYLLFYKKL

USP1(S313D) = molecular target: T2, USP1(S313D) (human, UniProt O94782 1-785, G670A | G671A | S313D); experiment: cell-based or functional assay
T2 sequence (looked up): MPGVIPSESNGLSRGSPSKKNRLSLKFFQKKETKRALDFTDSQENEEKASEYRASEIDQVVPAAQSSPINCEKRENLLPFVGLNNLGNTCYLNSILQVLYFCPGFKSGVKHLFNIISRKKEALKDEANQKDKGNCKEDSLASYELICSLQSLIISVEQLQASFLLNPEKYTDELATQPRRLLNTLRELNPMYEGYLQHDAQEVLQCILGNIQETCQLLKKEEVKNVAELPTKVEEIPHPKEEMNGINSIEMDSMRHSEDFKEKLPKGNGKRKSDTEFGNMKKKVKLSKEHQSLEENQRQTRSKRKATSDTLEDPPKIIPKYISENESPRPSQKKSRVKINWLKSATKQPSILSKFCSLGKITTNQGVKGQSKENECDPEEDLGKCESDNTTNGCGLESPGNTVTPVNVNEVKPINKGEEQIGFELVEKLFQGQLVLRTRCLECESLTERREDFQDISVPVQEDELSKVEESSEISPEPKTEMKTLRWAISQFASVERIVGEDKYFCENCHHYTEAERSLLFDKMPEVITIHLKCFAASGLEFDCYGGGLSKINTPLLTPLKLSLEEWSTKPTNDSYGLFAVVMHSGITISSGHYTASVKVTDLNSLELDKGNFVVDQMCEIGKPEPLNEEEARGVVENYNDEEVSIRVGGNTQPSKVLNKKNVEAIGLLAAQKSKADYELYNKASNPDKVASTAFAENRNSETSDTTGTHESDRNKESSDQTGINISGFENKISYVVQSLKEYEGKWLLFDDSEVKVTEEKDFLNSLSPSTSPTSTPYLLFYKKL

B1: UAF1 (USP1-associated factor 1), six-His-tagged, N-terminally HA-tagged (natural protein)
chain: not shown
Q: Which results are given for B1?
A: kcat/Km of USP1(S313A) purified together with His-tagged UAF1, on Ub-AMC (USP1(S313A)): 1100 M⁻¹ s⁻¹; kcat/Km of the copurified USP1(S313D)/UAF1 complex on Ub-AMC (USP1(S313D)): 250000 M⁻¹ s⁻¹
